Source: paper PMC9177846, “Targeting parvalbumin promotes M2 macrophage polarization and energy expenditure in mice” (Nature Communications, 2022)

T1: GFP-tagged CSF1R immunoprecipitated from HEK293T cells (UniProt P09581 20-298)
T1 sequence: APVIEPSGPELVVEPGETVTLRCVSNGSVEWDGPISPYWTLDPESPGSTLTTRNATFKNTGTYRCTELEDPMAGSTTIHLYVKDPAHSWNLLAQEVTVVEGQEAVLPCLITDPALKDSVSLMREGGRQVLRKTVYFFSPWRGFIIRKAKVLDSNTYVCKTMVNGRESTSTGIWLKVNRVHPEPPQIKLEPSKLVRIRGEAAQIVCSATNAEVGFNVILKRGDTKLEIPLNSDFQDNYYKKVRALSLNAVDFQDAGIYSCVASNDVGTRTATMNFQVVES

T2: CSF1R protein immobilised for SPR (UniProt P09581 20-298)
T2 construct: CSF1R protein used at 30 µg/ml for covalent immobilisation
T2 sequence: T1 sequence

T3: GFP-tagged CSF1R immunoprecipitated from HEK293T cells (UniProt P09581)
T3 sequence: T1 sequence

B1: parvalbumin (recombinant protein) (natural protein, UniProt P32848 1-110, looked up)
chain: MSMTDVLSAEDIKKAIGAFAAADSFDHKKFFQMVGLKKKNPDEVKKVFHILDKDKSGFIEEDELGSILKGFSSDARDLSAKETKTLLAAGDKDGDGKIGVEEFSTLVAES
notes: parvalbumin, recombinant; The only source printed for a recombinant parvalbumin is human parvalbumin 15333-H08E (Sino Biological), named for the PBMC experiments only; also called PVALB; rPVLAB; source: recombinant protein
B2: Macrophage colony-stimulating factor (ligand)
chain: KEVSEHCSHMIGNGHLKVLQQLIDSQMETSCQIAFEFVDQEQLDDPVCYLKKAFFLVQDIIDETMRFKDNTPNANATERLQELSNNLNSCFTKDYEEQNKACVRTFHETPLQLLEKIKNFFNETKNLLEKDWNIFTKNCNNSFAKCSSRDVVTKPDCNCLYPKATPSSDPASASPHQPPAPSMAPLAGLAWDDSQRTEGSSLLPSELPLRIEDPGSAKQRPPRSTCQTLESTEQPNHGDRLTEDSQPHPSAGGPVPGVEDILESSLGTNWVLEEASGEASEGFLTQEAKFSPSTPVGGSIQAETDRPRALSASPFPKSTEDQKPVDITDRPLTEVNPMRPIGQTQNNTPEKTDGTSTLREDHQEPGSPHIATPNPQRVSNSATPVAQLLLPKSHSWGIVLPLGELEGKRSTRDRRSPAELEGGSASEGAARPVARFNSIPLTDTGHVEQHEGSSDPQIPESVFHLLVPGIILVLLTVGGLLFYKWKWRSHRDPQTLDSSVGRPEDSSLTQDEDRQVELPV

Tests used:
[1] = target: T1, GFP-tagged CSF1R immunoprecipitated …; experiment: cell-based or functional assay
[2] = target: T2, CSF1R protein immobilised for SPR; experiment: SPR; Open SPR (Nicoya); CSF1R (30 µg/ml) covalently immobilised on COOH sensor chip by EDC/NHS; parvalbumin injected from low to high concentrations, 20 µl/min for 5 min; analysed with Trace Drawer; details: both partners purified
[3] = target: T3, GFP-tagged CSF1R immunoprecipitated from HEK293T cells

Row | Binder | ELK1-Luc reporter: concentration-response of parvalbumin on CSF1R activation in the presence of MCSF (IC50) [1] | Kd [2] | ELK1-Luc reporter: concentration-response of MCSF on CSF1R activation in cells stably expressing CSF1R (EC50) [3]
1 | B1 | 3.26 nM | 3.65 µM | 
2 | B2 |  |  | 0.36 nM
